Abundance fitness data for 42 variants are collected here from the Human Domainome abundance scans (Beltran et al. 2025).

± gives the uncertainty stated by the source.

The labels stand for the following.
B1: Calcium-binding protein 2, residues 155 to 219; numbered along this chain, Q9NPB3 (parent)
chain: RELRDAFREFDTNGDGRISVGELRAALKALLGERLSQREVDEILQDVDLNGDGLVDFEEFVRMMS

Variants of B1 are the subject of the series. Put plainly: abundance fitness (aPCA) (normalised: wild type 0, dead -1); higher = more abundant; growth selection in yeast, the domain comes from the species named. The note with it: Homo sapiens.
For the variant RELRDAFREFDTNGDGRISVGELRAALKALLGERLSQREVDEILQDVDLNGDELVDFEEFVRMMS, the abundance fitness is -0.199 ± 0.086.

As for RELRDAFREFDTNGDGRISVGELRAALKALLGERLSQREVDEILQDVDLNGDVLVDFEEFVRMMS, the abundance fitness is -0.063 ± 0.062.

For the variant RELRDAFREFDTNGDGRISVGELRAALKALLGERLSQREVDEILQDVDLNGDYLVDFEEFVRMMS, the abundance fitness was -0.012 ± 0.25.

Take RELRDAFREFDTNGDGRISVGELRAALKALLGERLSQREVDEILQDVDLNGDMLVDFEEFVRMMS: the abundance fitness is -0.141 ± 0.09.

As to RELRDAFREFDTNGDGRISVGELRAALKALLGERLSQREVDEILQDVDLNGDRLVDFEEFVRMMS, the abundance fitness was -0.397 ± 0.057.

As for RELRDAFREFDTNGDGRISVGELRAALKALLGERLSQREVDEILQDVDLNGDALVDFEEFVRMMS, the abundance fitness is -0.115 ± 0.064.

As for RELRDAFREFDTNGDGRISVGELRAALKALLGERLSQREVDEILQDVDLNGDDLVDFEEFVRMMS, the abundance fitness is -0.088 ± 0.062.

Turning to RELRDAFREFDTNGDGRISVGELRAALKALLGERLSQREVDEILQDVDLNGDCLVDFEEFVRMMS, the abundance fitness is -0.121 ± 0.13.

On to RELRDAFREFDTNGDGRISVGELRAALKALLGERLSQREVDEILQDVDLNGDSLVDFEEFVRMMS, for which the abundance fitness was -0.05 ± 0.068.

In the case of RELRDAFREFDTNGDGRISVGELRAALKALLGERLSQREVDEILQDVDLNGPGLVDFEEFVRMMS, the abundance fitness was -0.145 ± 0.09.

Take RELRDAFREFDTNGDGRISVGELRAALKALLGERLSQREVDEILQDVDLNGKGLVDFEEFVRMMS: the abundance fitness was -0.094 ± 0.1.

Regarding RELRDAFREFDTNGDGRISVGELRAALKALLGERLSQREVDEILQDVDLNGRGLVDFEEFVRMMS, the abundance fitness was -0.149 ± 0.064.

As to RELRDAFREFDTNGDGRISVGELRAALKALLGERLSQREVDEILQDVDLNGYGLVDFEEFVRMMS, the abundance fitness is -0.18 ± 0.072.

As for RELRDAFREFDTNGDGRISVGELRAALKALLGERLSQREVDEILQDVDLNGSGLVDFEEFVRMMS, the abundance fitness is -0.133 ± 0.08.

As to RELRDAFREFDTNGDGRISVGELRAALKALLGERLSQREVDEILQDVDLNGMGLVDFEEFVRMMS, the abundance fitness is -0.168 ± 0.086.

For the variant RELRDAFREFDTNGDGRISVGELRAALKALLGERLSQREVDEILQDVDLNGLGLVDFEEFVRMMS, the abundance fitness was -0.108 ± 0.062.

RELRDAFREFDTNGDGRISVGELRAALKALLGERLSQREVDEILQDVDLNGIGLVDFEEFVRMMS: the abundance fitness is -0.126 ± 0.082.

As to RELRDAFREFDTNGDGRISVGELRAALKALLGERLSQREVDEILQDVDLNGQGLVDFEEFVRMMS, the abundance fitness is -0.121 ± 0.11.

In the case of RELRDAFREFDTNGDGRISVGELRAALKALLGERLSQREVDEILQDVDLNGTGLVDFEEFVRMMS, the abundance fitness was -0.196 ± 0.097.

As for RELRDAFREFDTNGDGRISVGELRAALKALLGERLSQREVDEILQDVDLNGDGLHDFEEFVRMMS, the abundance fitness is -0.382 ± 0.07.

As for RELRDAFREFDTNGDGRISVGELRAALKALLGERLSQREVDEILQDVDLNGDGLDDFEEFVRMMS, the abundance fitness is -1.16 ± 0.09.

RELRDAFREFDTNGDGRISVGELRAALKALLGERLSQREVDEILQDVDLNGDGLIDFEEFVRMMS: the abundance fitness was -0.185 ± 0.054.

RELRDAFREFDTNGDGRISVGELRAALKALLGERLSQREVDEILQDVDLNGDGLFDFEEFVRMMS: the abundance fitness turned out to be 0.048 ± 0.063.

For RELRDAFREFDTNGDGRISVGELRAALKALLGERLSQREVDEILQDVDLNGDGLWDFEEFVRMMS, the abundance fitness is -0.192 ± 0.053.

Turning to RELRDAFREFDTNGDGRISVGELRAALKALLGERLSQREVDEILQDVDLNGDGLTDFEEFVRMMS, the abundance fitness is -0.038 ± 0.055.

Turning to RELRDAFREFDTNGDGRISVGELRAALKALLGERLSQREVDEILQDVDLNGDGLSDFEEFVRMMS, the abundance fitness is -0.394 ± 0.038.

For the variant RELRDAFREFDTNGDGRISVGELRAALKALLGERLSQREVDEILQDVDLNGDGLPDFEEFVRMMS, the abundance fitness is -0.874 ± 0.098.

For RELRDAFREFDTNGDGRISVGELRAALKALLGERLSQREVDEILQDVDLNGDGLMDFEEFVRMMS, the abundance fitness is -0.338 ± 0.057.

Regarding RELRDAFREFDTNGDGRISVGELRAALKALLGERLSQREVDEILQDVDLNGDGLLDFEEFVRMMS, the abundance fitness was -0.028 ± 0.045.

For the variant RELRDAFREFDTNGDGRISVGELRAALKALLGERLSQREVDEILQDVDLNGDGLGDFEEFVRMMS, the abundance fitness is -0.829 ± 0.044.

As to RELRDAFREFDTNGDGRISVGELRAALKALLGERLSQREVDEILQDVDLNGDGLEDFEEFVRMMS, the abundance fitness was -1.02 ± 0.16.

As to RELRDAFREFDTNGDGRISVGELRAALKALLGERLSQREVDEILQDVDLNGDGLKDFEEFVRMMS, the abundance fitness is -0.691 ± 0.087.

As to RELRDAFREFDTNGDGRISVGELRAALKALLGERLSQREVDEILQDVDLNGDGLADFEEFVRMMS, the abundance fitness is -0.189 ± 0.057.

Take RELRDAFREFDTNGDGRISVGELRAALKALLGERLSQREVDEILQDVDLNGDGLNDFEEFVRMMS: the abundance fitness was -0.714 ± 0.069.

Consider RELRDAFREFDTNGDGRISVGELRAALKALLGERLSQREVDEILQDVDLNGDGLRDFEEFVRMMS, for which the abundance fitness was -0.78 ± 0.046.

As for RELRDAFREFDTNGDGRISVGELRAALKALLGERLSQREVDEILQDVDLNGDGLCDFEEFVRMMS, the abundance fitness was -0.023 ± 0.041.

With RELRDAFREFDTNGDGRISVGELRAALKALLGERLSQREVDEILQDVDLNGDGLQDFEEFVRMMS, the abundance fitness is -0.391 ± 0.084.

Turning to RELRDAFREFDTNGDGRISVGELRAALKALLGERLSQREVDEILQDVDLNGDGLVDFCEFVRMMS, the abundance fitness is -0.576 ± 0.17.

Turning to RELRDAFREFDTNGDGRISVGELRAALKALLGERLSQREVDEILQDVDLNGDGLVDFAEFVRMMS, the abundance fitness is -0.077 ± 0.086.

For RELRDAFREFDTNGDGRISVGELRAALKALLGERLSQREVDEILQDVDLNGDGLVDFGEFVRMMS, the abundance fitness is -0.003 ± 0.056.

In the case of RELRDAFREFDTNGDGRISVGELRAALKALLGERLSQREVDEILQDVDLNGDGLVDFFEFVRMMS, the abundance fitness was -0.331 ± 0.24.

Regarding RELRDAFREFDTNGDGRISVGELRAALKALLGERLSQREVDEILQDVDLNGDGLVDFDEFVRMMS, the abundance fitness was -0.061 ± 0.092.
